Laboratory results as given in US20250179155A1 (VANDERBILT UNIVERSITY, published 2025).
Residue numbers refer to the chain shown, from its start.

B1: A1C11 (VHH)
VHH: QVQLQESGGGLVQAGDSLRLSCAASGRTFSRYAMGWFRQAPGKEREFVAAISWSGGTTYYADSVKGRFTISRDNAKNTVYLQMNSLKPEDTAVYYCAAGLFRGDLTRFKLDEYDYRGQGTQVTVSS
B2: A2F12 (VHH)
VHH: B1 VHH with D16G, G56D, Y60D, I70V, R107K, K109E
B3: A2C2 (VHH)
VHH: B1 VHH with A14T, D16G, A23T, P41S, W53Y, A61S, N77S, Y80S, K109T
B4: A1D8 (VHH)
VHH: B1 VHH with D16G, A23V, R27G, M34L, W53Y, G56A, Y80F, L100F, R107K
B5: A1D1 (VHH)
VHH: QVQLQESGGGLVQAGGSLRLSCAASGRTFSTHTMAWFRQAPGKEREFVTGIRWSDGMTIYADSVKGRFTISRDKATNTMYLEMNTLKPDDTAVYYCGAGPTMYHPTYWGQGTQVTVSS
B6: A1H5 (VHH)
VHH: QVQLQESGGGLVQPGGSLRLSCAASGSIFSINAMGWYRQAPGKQRELVASITSGGSTNYADSVKGRFTISRDGAKNTVYLQMNSLKPEDTAVYYCHVPWTDDFGWAVKDYWGQGTQVTVSS
B7: A1G6 (VHH)
VHH: QVQLQESGGGLVQPGGSLRLSCAASGRAFSSYAMGWFRQTPGKEREFVAVISWSGGSTYYADSVKGRFTISRDNTKNMVYLQMMSLKPEDTAVYYCAADFSQPLLATVPDDYDYWGQGTQVTVSS
B8: B0A9 (VHH)
VHH: QVQLQESGGGLVQPGGSLRLTCTSSTSINIYPYMGWYRQAPGKQRERVATVNRDGNTNYLDSVKGRFTITRDDAKKTICLQMNNLEPEDTAVYYCNNFGSSSWGQGTQVTVSS
B9: B0E2 (VHH)
VHH: QVQLQESGGGLVLPGGSLRLSCAASGTVFKIYVMGWYRQAPGKQRELVATISNGGTPNYADSVKGRFTISGDRAKNTVFLQMSSLNVEDTAVYYCNRRQLEGRQSEDYWGQGTQVTVSS
B10: B0B7 (VHH)
VHH: QVQLQESGGGSVQPGGSLRLSCAASGSIYGMMMMAWYRQRTGEQRELVANFTRDGSTNYVDSVKGRFTISRDNDKKMVYLQMKDLKPEDTAVYYCNIQRYWGKGTAVTVSS
B11: B1E7 (VHH)
VHH: QVQLQESGGGLVQPGGSLRLSCAASGSLRSGYVMSWHRQAPGKQRELVASITTGDITQYGASVKGRFTISRDETKNMGWLQMNSLLPEDTAVYYCKITELPTVSVYWGQGTQVTVSS
B12: B2C11 (VHH)
VHH: QVQLQESGGGLVHVGESLTLSCVAPGSIFGVNTMAWYRQAPGKQRELVAAISPGGYTNYAEFVKGRFGISRDKAKNTVYLQMNDLKPEDTAVYYCNYRSGTSRPNTNWGQGTQVTVSS
B13: B0C10 (VHH)
VHH: QVQLQESGGGLVQPGGSLRLSCTASGFTRKHYTIGWFRQAPGKEREGVSCITTPDNSTYYKDSVKGRFTISRDNAKNTVYLQMNNVKPEDTAVYYCGASALGGSSCAQSSSVLHRLFQWGQGTQVTVSS
B14: B0D11 (VHH)
VHH: QVQLQESGGGLAQPGGSLRLSCAASGFTFSHAVMSWFRQAPGKERELVAGWRSAGGITNYADSVKGRFTISGDNAKDVVYLQMNSLKPEDTAVYYCKAFVVGSAYWGQGTQVTVSS
B15: B1C10 (VHH)
VHH: QVQLQESGGGLVQPGGSLRLSCLASGLSLSTDVMSWFRQAPGKERELVAGIRSAGWITNYADSVKGRFTISVDSAKNTVYLQMNSLKPEDTAVYYCKVLRLPDGLAFWGQGTQVTVSS
B16: B2C5 (VHH)
VHH: QVQLQESGGGLVQPGGSLRLSCAASGLTSGTYVMSWFRQAPGKEREFVAAIRDAGGIRNYADSVKGRFTISRDAAKNMIFLQMNSLKPEDTAVYYCKFLRLPESLAYWGQGTQVTVSS
B17: B0B11 (VHH)
VHH: QVQLQESGGGLVQPGGSLRLSCATSGFYFPNYAMSWHRQAPGQERELVARITSAGGSTDYADSVKGRFTISRDNSKNTVYLQMNGLISEDTAVYYCNADPSYGTRYWGQGTQVTVSS
B18: A1C1 (VHH)
VHH: QVQLQESGGGLVQAGGSLRLSCAASGGTFSSYSVGWFRQAPGLEREFVGMITWRGITYFEDFVKDRFNISRDNAKNTVYLQMNSLKPEDTAVYSCAARDRRAARIQEFDYWGQGTQVTVSS
B19: A2F10 (VHH)
VHH: QVQLQESGGGLVQPGGSLRLSCAASGRSFSSGAMGWFRQAPGKEREFVGVGWSGGLIDYAASVRGRFTITRDKAKNTVYLRMDSLRPEDTAVYYCAINSANSCAGYDCHDKPQVYDYWGQGTQVTVSS
B20: A1H1 (VHH)
VHH: QVQLQESGGGLVQAGGSLRLSCAASGGTFSKTSVGWFRQAPGLEREFVALITWSGNTYFVDSVRERFAISRDNAENTVYLQMNSLEPEDTAVYYCAARERTAARIQEFDYWGQGTQVTVSS
B21: A2A8 (VHH)
VHH: QVQLQESGGGLVQAGDSLRLSCTASGGTFSSYSIGWFRQAPGLEREFVALITWRNNTYLGDSVRERFAISRDNAKNTVYLQMNSLKPEDTAVYSCAARERRVARIQEFDYWGQGTQVTVSS
B22: A2B10 (VHH)
VHH: QVQLQESGGGTVQPGGSLRLSCAASGRDFSSGAMGWFRQTPGNEREFVGVGWSGGLIDYSDSVKGRFTITRDKLKNEVYLRMDRLKPEDTAVYFCAVNSANSCAGYDCHDKPQTYNYWGQGTQVTVSS

The binders below were run against T1, TcdA-GTD (TcdA1-542) (Clostridioides difficile strain VPI10463, UniProt P16154 1-542) (assay: ELISA-like screen of clone lysates on isolated domains).
T1 construct: range 1-542; also called TcdA glucosyltransferase domain
T1 sequence (P16154 1-542 limits assumed): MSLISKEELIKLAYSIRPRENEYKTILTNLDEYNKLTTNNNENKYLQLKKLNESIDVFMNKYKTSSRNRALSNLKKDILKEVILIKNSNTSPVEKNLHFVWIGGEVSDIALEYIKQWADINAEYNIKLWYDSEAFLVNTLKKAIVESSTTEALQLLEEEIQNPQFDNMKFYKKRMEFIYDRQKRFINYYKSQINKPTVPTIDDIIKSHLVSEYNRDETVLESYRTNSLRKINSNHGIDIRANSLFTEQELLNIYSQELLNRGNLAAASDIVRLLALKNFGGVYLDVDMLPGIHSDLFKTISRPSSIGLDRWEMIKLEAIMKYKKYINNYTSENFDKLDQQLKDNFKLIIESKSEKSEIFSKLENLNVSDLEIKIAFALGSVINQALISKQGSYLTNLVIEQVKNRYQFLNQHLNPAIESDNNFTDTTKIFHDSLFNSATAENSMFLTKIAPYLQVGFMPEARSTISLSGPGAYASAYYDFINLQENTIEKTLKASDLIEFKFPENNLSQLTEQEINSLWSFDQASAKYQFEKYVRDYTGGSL

Row | Binder | binding result
1 | B1 | no binding
2 | B2 | no binding
3 | B3 | no binding
4 | B4 | no binding
5 | B5 | no binding
6 | B6 | no binding
7 | B7 | no binding

The binders below were run against full-length TcdB (TcdB1-2366), VPI10463 (Clostridioides difficile strain VPI10463, UniProt P18177 1-2366) (assay: cell-based or functional assay).
Sequence of full-length TcdB (TcdB1-2366), VPI10463 (P18177 whole entry): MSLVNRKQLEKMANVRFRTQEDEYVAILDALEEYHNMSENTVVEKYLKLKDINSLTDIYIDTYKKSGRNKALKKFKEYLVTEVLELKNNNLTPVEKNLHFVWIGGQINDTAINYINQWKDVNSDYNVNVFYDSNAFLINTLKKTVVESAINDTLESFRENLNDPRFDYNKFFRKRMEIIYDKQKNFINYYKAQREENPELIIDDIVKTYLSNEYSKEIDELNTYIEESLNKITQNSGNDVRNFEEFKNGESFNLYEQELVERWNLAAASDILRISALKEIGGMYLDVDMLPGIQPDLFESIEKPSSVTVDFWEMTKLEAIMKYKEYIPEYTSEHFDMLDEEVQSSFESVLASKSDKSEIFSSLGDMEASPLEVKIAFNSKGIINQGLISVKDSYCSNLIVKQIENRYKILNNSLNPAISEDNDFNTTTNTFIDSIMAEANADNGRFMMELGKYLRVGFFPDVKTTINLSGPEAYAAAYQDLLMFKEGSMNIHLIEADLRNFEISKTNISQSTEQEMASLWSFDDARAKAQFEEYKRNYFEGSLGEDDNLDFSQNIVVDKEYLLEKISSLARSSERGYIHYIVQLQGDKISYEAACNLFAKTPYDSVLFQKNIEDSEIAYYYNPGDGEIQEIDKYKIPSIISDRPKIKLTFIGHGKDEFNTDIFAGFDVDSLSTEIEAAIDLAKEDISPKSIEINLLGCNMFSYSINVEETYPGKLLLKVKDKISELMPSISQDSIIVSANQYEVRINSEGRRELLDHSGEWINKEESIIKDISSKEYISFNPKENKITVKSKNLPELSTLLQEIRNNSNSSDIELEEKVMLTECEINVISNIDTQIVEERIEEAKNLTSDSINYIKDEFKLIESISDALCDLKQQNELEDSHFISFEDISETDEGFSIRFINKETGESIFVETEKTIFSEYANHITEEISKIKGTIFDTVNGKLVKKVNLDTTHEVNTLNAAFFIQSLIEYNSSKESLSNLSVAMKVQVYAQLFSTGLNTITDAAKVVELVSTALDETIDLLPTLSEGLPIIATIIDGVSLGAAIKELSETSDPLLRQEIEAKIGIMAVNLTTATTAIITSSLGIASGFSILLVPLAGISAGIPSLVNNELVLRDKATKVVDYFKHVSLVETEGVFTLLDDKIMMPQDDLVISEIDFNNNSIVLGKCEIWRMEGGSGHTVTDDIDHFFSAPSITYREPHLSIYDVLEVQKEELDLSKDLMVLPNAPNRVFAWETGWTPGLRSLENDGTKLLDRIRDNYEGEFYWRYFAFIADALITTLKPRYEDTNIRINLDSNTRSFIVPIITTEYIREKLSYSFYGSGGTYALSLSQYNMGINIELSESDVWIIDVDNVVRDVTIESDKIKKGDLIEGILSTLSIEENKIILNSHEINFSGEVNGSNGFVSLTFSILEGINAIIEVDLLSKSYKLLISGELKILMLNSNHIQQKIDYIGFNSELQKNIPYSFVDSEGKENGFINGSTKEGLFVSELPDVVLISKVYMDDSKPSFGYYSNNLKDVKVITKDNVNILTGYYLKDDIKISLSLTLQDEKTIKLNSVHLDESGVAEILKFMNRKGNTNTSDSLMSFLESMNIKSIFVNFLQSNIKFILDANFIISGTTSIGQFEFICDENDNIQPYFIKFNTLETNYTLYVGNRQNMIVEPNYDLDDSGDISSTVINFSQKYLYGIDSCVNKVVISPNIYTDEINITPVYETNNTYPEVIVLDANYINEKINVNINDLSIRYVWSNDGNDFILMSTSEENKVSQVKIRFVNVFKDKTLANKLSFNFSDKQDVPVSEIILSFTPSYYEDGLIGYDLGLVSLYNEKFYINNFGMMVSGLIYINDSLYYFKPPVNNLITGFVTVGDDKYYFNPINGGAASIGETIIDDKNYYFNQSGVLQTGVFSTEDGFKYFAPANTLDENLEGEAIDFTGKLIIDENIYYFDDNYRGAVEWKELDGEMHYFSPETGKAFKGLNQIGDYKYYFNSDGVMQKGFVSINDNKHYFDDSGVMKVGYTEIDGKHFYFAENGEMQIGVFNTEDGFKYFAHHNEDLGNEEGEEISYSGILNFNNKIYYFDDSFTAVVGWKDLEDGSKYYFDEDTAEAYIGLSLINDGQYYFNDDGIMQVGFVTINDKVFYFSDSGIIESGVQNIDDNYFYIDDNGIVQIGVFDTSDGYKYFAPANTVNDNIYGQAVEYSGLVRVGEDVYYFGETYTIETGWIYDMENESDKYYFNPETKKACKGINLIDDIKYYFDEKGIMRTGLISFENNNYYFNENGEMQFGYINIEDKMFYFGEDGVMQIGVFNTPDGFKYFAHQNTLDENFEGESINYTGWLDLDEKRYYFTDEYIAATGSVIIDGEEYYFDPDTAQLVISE

Row | Binder | EC50 (nM), TcdB neutralization, Caco-2 cells | EC50 (nM), TcdB neutralization, Vero cells
8 | B8 | 1.3 nM | 12.9 nM
9 | B9 | < 1 nM | 28 nM
10 | B10 | – | < 1 nM
11 | B11 | – | 10 nM
12 | B12 | – | < 1 nM
13 | B13 | < 1 nM | 1.3 nM
14 | B14 | 111 nM | 176 nM
15 | B15 | – | 2.2 nM
16 | B16 | – | < 1 nM
17 | B17 | 161 nM | 350 nM

The binders below were run against full-length TcdA (TcdA1-2710) (Clostridioides difficile strain VPI10463, UniProt P16154 1-2710) (assay: cell-based or functional assay).

Row | Binder | EC50 (nM), TcdA neutralization, T84 cells | EC50 (nM), TcdA neutralization, Vero cells | EC50, TcdA neutralization, T84 cells
18 | B1 | 10.4 nM | < 1 nM | –
19 | B2 | 1.1 nM | < 1 nM | –
20 | B3 | 2.4 nM | < 1 nM | –
21 | B4 | 2.1 nM | < 1 nM | –
22 | B6 | – | 15.7 nM | –
23 | B18 | – | – | > 10 µM
24 | B19 | 455 nM | – | –
25 | B20 | – | – | > 10 µM
26 | B21 | – | – | > 10 µM
27 | B22 | 678 nM | – | –
28 | B7 | – | 6.4 nM | –
